Blank lines part the entries; values can stand above or below the binder they belong to.
How the values were obtained:
[1] = biological target: anti-BCMA CARTyrins expressed on the surface of primary T cells; experiment: cell-based or functional assay
Tencon25 [2] = biological target: T1, Tencon25; experiment: ELISA, coated FN3 domain in dose-response, supernatant at 1 µg/ml, luminescence
T1 construct: Artificial FN3 domain (centyrin scaffold) with no target specificity; It was the immunogen; also called Tencon-T25
T1 chain: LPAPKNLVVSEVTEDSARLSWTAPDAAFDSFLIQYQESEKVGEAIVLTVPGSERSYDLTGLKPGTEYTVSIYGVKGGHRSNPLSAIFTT
Method: (§1) Three plates were coated with dose-response curves of, FN3 domain A3 specific for human cMET (SEQ ID NO: 31), 83v2-ABD specific for human EGFR with an albumin binding domain (SEQ ID NO: 32), tencon 25 that has no specificity (SEQ ID NO: 28), or negative control protein, all at 50 μL/well in 50 mM PBS. Plates were incubated over night at 4° C. Supernatants were dumped from plates and 200 μL/well Superblock was added to block plates for 1 hour at RT. […] Plates were incubated for 1 hour at RT. Plates were washed 3× with TBS-T. Secondary antibodies (HRP-goat anti-rabbit, rat or mouse) were prepared at 1:10,000 in Superblock and added to the plates. Plates were incubated for 1 hour at RT. Plates were washed 3× with TBS-T. 50 μL/well POD reagent (prepared according to Sigma-Aldrich manufacturer's instructions and incubated in the dark at RT for at least 30 minutes prior to use) was added to plates. After 3-5 minute incubation, protected from light, the M5 was used to read luminescence. The results were plotted in Prism (FIGS. 1A-C) using a Log/Log transformation, and then a four-parameter curve fit. […] It should be noted that there was no non-specific binding to negative control antibody. The mouse version of the antibody, AS7B91, appeared to have binding characteristics more similar to the original rabbit hybridoma antibody.

[3] = biological target: T2, FN3 domain A3 specific for human cMET; experiment: as above
T2 construct: it carries a C-terminal His tag
T2 chain: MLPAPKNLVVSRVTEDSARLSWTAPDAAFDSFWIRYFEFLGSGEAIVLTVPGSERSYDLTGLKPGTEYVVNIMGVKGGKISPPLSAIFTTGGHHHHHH
Method: as §1

[4] = biological target: T3, 83v2-ABD specific for human EGFR with an albumin binding domain; experiment: as above
T3 chain: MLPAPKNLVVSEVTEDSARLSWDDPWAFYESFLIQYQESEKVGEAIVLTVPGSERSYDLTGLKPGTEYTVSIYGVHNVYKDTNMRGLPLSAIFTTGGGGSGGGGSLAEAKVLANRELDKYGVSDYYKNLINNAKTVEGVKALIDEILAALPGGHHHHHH
Method: as §1

Tencon25 [5] = biological target: T1, Tencon25; experiment: flow cytometry on CAR-electroporated primary T cells, labeled Tencon25
Tencon25 [6] = biological target: T1, Tencon25; experiment: flow cytometry, CAR-electroporated T cells stained with 50 nM APC labeled Tencon-25
Method: For AS7B16 and AS7B82, binding was assessed using flow cytometry. Briefly, Twenty-four hours post-electroporation, cells were centrifuged at 100×g for 10 minutes and washed two times in FACS stain buffer (BD Biosciences Catalog#554657). Cells were incubated with either APC labeled […] or AF647 labeled anti-EGFR 83v2 FN3 domains at a final concentration of 50 nM at 4° C. for 1 hour. The labeled cells were washed twice in FACS stain buffer and re-suspended in 200 uL of the same buffer. Data was collected using a BD LSRFortessa flow cytometer and analysis was performed using Flowjo software. All CARTs tested, AS7B16, AS7B82 and AS7B91 bind to both FN3 domains tested, Tencon-T25 and EGFR 83v2. Binding of CARTs occurs in the following manner: ASS7B91>AS7B82>AS7B16.

- binding result (Tencon25 [6]): binds
B5: AS7B16 scFv CAR, H-L orientation (scFv)
chain: QVTLKESGPGILQPSQTLSLTCSFSGFSLNTSGTGVGWIRQPSGKGLEWLAHIWWDDDKGYNPALKSRLTISKNTSSNLVFLKIASVDTADTATYYCVRIKGRMDYWGQGTSVTVSSGGGGSGGGGSGGGGSGGGGSNIMMTQSPSSLAVSAGEKVTMNCKSSQSVLFGSKQKNYLAWYQQKPGQSPKLLIYWASTRESGVPDRFTGSGSGTDFILTISNVQAEDLAVYYCHQYLSLFTFGSGTKLEIKTTTPAPRPPTPAPTIASQPLSLRPEACRPAAGGAVHTRGLDFACDIYIWAPLAGTCGVLLLSLVITLYCKRGRKKLLYIFKQPFMRPVQTTQEEDGCSCRFPEEEEGGCELRVKFSRSADAPAYKQGQNQLYNELNLGRREEYDVLDKRRGRDPEMGGKPRRKNPQEGLYNELQKDKMAEAYSEIGMKGERRRGKGHDGLYQGLSTATKDTYDALHMQALPPR
notes: Chimeric antigen receptor on mRNA-electroporated human pan T cells; also called AS7B16 H2L; AS7B16 H-L CAR ECD

- binding result (Tencon25 [6]): binds
B6: AS7B16 scFv CAR, L-H orientation (scFv)
chain: NIMMTQSPSSLAVSAGEKVTMNCKSSQSVLFGSKQKNYLAWYQQKPGQSPKLLIYWASTRESGVPDRFTGSGSGTDFILTISNVQAEDLAVYYCHQYLSLFTFGSGTKLEIKGGGGSGGGGSGGGGSGGGGSQVTLKESGPGILQPSQTLSLTCSFSGFSLNTSGTGVGWIRQPSGKGLEWLAHIWWDDDKGYNPALKSRLTISKNTSSNLVFLKIASVDTADTATYYCVRIKGRMDYWGQGTSVTVSSTTTPAPRPPTPAPTIASQPLSLRPEACRPAAGGAVHTRGLDFACDIYIWAPLAGTCGVLLLSLVITLYCKRGRKKLLYIFKQPFMRPVQTTQEEDGCSCRFPEEEEGGCELRVKFSRSADAPAYKQGQNQLYNELNLGRREEYDVLDKRRGRDPEMGGKPRRKNPQEGLYNELQKDKMAEAYSEIGMKGERRRGKGHDGLYQGLSTATKDTYDALHMQALPPR
notes: Chimeric antigen receptor on mRNA-electroporated human pan T cells; also called AS7B16 L2H; AS7B16 L-H CAR ECD

Continued, binder first:

B1: AS7B91 (antibody, mouse IgG2a, kappa)
heavy: QSLEESGGRLVTPGTPLTLTCTVSGIDLSTSVMGWVRQAPGKGLESIGFIYTNVNTYYASWAKGRFTISRTSTTVDLKITSPTTGDTATYFCARAVYAGAMDLWGQGTLVTVSSAKTTAPSVYPLAPVCGDTTGSSVTLGCLVKGYFPEPVTLTWNSGSLSSGVHTFPAVLQSDLYTLSSSVTVTSSTWPSQSITCNVAHPASSTKVDKKIEPRGPTIKPCPPCKCPAPNLLGGPSVFIFPPKIKDVLMISLSPIVTCVVVDVSEDDPDVQISWFVNNVEVHTAQTQTHREDYNSTLRVVSALPIQHQDWMSGKEFKCKVNNKDLPAPIERTISKPKGSVRAPQVYVLPPPEEEMTKKQVTLTCMVTDFMPEDIYVEWTNNGKTELNYKNTEPVLDSDGSYFMYSKLRVEKKNWVERNSYSCSVVHEGLHNHHTTKSFSRTPGK
light: DVVMTQTPASVSGPVGGTVTIKCQASERIYSNLAWYQQKPGQPPKLLIYKASTLASGVSSRFKGSGSGTEFTLTIRDLECADAATYSCQYTSYGSGYVGTFGGGTEVVVEGRADAAPTVSIFPPSSEQLTSGGASVVCFLNNFYPKDINVKWKIDGSERQNGVLNSWTDQDSKDSTYSMSSTLTLTKDEYERHNSYTCEATHKTSTSPIVKSFNRNEC
notes: also called a-Centyrin
- increase in cell number compared to unstimulated cells [1]: 11 fold
- binding result (Tencon25 [2]): binds
- binding result [3]: binds
- binding result [4]: binds

B2: AS7B91 scFv L-H CAR (scFv)
chain: DVVMTQTPASVSGPVGGTVTIKCQASERIYSNLAWYQQKPGQPPKLLIYKASTLASGVSSRFKGSGSGTEFTLTIRDLECADAATYSCQYTSYGSGYVGTFGGGTEVVVEGGGGGSGGGGSGGGGSGGGGSLEESGGRLVTPGTPLTLTCTVSGIDLSTSVMGWVRQAPGKGLESIGFIYTNVNTYYASWAKGRFTISRTSTTVDLKITSPTTGDTATYFCARAVYAGAMDLWGQGTLVTVSSTTTPAPRPPTPAPTIASQPLSLRPEACRPAAGGAVHTRGLDFACDIYIWAPLAGTCGVLLLSLVITLYCKRGRKKLLYIFKQPFMRPVQTTQEEDGCSCRFPEEEEGGCELRVKFSRSADAPAYKQGQNQLYNELNLGRREEYDVLDKRRGRDPEMGGKPRRKNPQEGLYNELQKDKMAEAYSEIGMKGERRRGKGHDGLYQGLSTATKDTYDALHMQALPPR
notes: Chimeric antigen receptor on mRNA-electroporated human pan T cells; also called BAR-T variant 1; AS7B91 L-H CAR ECD
- binding result (Tencon25 [5]): binds

B3: AS7B91 scFv H-L CAR (scFv)
chain: QSLEESGGRLVTPGTPLTLTCTVSGIDLSTSVMGWVRQAPGKGLESIGFIYTNVNTYYASWAKGRFTISRTSTTVDLKITSPTTGDTATYFCARAVYAGAMDLWGQGTLVTVSSGGGGSGGGGSGGGGSGGGGSDVVMTQTPASVSGPVGGTVTIKCQASERIYSNLAWYQQKPGQPPKLLIYKASTLASGVSSRFKGSGSGTEFTLTIRDLECADAATYSCQYTSYGSGYVGTFGGGTEVVVEGTTTPAPRPPTPAPTIASQPLSLRPEACRPAAGGAVHTRGLDFACDIYIWAPLAGTCGVLLLSLVITLYCKRGRKKLLYIFKQPFMRPVQTTQEEDGCSCRFPEEEEGGCELRVKFSRSADAPAYKQGQNQLYNELNLGRREEYDVLDKRRGRDPEMGGKPRRKNPQEGLYNELQKDKMAEAYSEIGMKGERRRGKGHDGLYQGLSTATKDTYDALHMQALPPR
notes: Chimeric antigen receptor on mRNA-electroporated human pan T cells; also called BAR-T variant 2; AS7B91 H-L CAR ECD
- binding result (Tencon25 [5]): binds

B4: AS7B90 (antibody, rat IgG1)
heavy: QSLEESGGRLVTPGTPLTLTCTVSGIDLSTSVMGWVRQAPGKGLESIGFIYTNVNTYYASWAKGRFTISRTSTTVDLKITSPTTGDTATYFCARAVYAGAMDLWGQGTLVTVSSAETTAPSVYPLAPGTALKSNSMVTLGCLVKGYFPEPVTVTWNSGALSSGVHTFPAVLQSGLYTLTSSVTVPSSTWPSQTVTCNVAHPASSTKVDKKIVPRNCGGDCKPCICTGSEVSSVFIFPPKPKDVLTITLTPKVTCVVVDISQDDPEVHFSWFVDDVEVHTAQTRPPEEQFNSTFRSVSELPILHQDWLNGRTFRCKVTSAAFPSPIEKTISKPEGRTQVPHVYTMSPTKEEMTQNEVSITCMVKGFYPPDIYVEWQMNGQPQENYKNTPPTMDTDGSYFLYSKLNVKKEKWQQGNTFTCSVLHEGLHNHHTEKSLSHSPGK
light: DVVMTQTPASVSGPVGGTVTIKCQASERIYSNLAWYQQKPGQPPKLLIYKASTLASGVSSRFKGSGSGTEFTLTIRDLECADAATYSCQYTSYGSGYVGTFGGGTEVVVEGRADAAPTVSIFPPSSEQLASGGASVVCFINKFYPKDISVKWKIDGSERQNDVLNSVTDQDSKDSTYSMSSTLTLTKADYERHNLYTCEVVHKTSASPVVKSFNRNEC
- binding result (Tencon25 [2]): binds
- binding result [3]: binds
- binding result [4]: binds
